Results published in patent US20200025759A1 (PANASONIC INTELLECTURAL PROPERTY MANAGEMENT, published 2020).

B1: VHH antibody consisting of the amino acid sequence represented by SEQ ID NO: 8 (VHH)
VHH: QVQLVESGGGLVQAGGSLRLSCIASGSIFSPNVMGWYRQAPGKPRELVAAITLGESTNYADSVKGRFTISRSNAENTVYLQMDSLKPEDTAVYYCNAGPILERVGPYWGQGTQVTVSS
B2: phage-displayed VHH antibody (protein synthesized from the DNA sequence represented by SEQ ID NO: 18, i.e. SEQ ID NO: 8) (VHH)
VHH: B1 VHH

Key:
[1] = target: intranuclear protein derived from type-A influenza virus H7N7 (A/seal/Massachusetts/1/1980) (type-A influenza virus H7N7 …, UniProt P26053 1-498); assay: ELISA, virus solution immobilized on plate, anti-His-HRP detection
intranuclear protein derived from type-A influenza virus H7N7 (A/seal/Massachusetts/1/1980), sequence (P26053 whole entry): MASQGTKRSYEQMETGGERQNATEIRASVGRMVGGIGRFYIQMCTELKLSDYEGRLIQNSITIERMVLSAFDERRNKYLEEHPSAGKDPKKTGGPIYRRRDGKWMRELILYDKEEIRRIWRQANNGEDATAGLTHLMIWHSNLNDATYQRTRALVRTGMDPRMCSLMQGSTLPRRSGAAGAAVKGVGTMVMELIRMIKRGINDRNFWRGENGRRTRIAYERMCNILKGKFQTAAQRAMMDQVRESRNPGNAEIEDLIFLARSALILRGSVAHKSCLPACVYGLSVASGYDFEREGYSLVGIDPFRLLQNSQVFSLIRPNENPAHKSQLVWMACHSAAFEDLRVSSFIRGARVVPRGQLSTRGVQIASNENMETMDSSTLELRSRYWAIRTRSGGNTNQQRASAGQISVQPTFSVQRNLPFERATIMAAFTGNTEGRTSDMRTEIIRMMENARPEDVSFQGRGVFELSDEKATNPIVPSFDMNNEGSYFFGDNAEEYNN

[2] = target: intranuclear protein derived from type-A influenza virus H1N1 (A/Puerto Rico/8/34/Mount Sinai) (type-A influenza virus H1N1 (A/Puerto …, UniProt P03466 1-498)); assay: as above
intranuclear protein derived from type-A influenza virus H1N1 (A/Puerto Rico/8/34/Mount Sinai) (type-A influenza virus H1N1, sequence (P03466 whole entry): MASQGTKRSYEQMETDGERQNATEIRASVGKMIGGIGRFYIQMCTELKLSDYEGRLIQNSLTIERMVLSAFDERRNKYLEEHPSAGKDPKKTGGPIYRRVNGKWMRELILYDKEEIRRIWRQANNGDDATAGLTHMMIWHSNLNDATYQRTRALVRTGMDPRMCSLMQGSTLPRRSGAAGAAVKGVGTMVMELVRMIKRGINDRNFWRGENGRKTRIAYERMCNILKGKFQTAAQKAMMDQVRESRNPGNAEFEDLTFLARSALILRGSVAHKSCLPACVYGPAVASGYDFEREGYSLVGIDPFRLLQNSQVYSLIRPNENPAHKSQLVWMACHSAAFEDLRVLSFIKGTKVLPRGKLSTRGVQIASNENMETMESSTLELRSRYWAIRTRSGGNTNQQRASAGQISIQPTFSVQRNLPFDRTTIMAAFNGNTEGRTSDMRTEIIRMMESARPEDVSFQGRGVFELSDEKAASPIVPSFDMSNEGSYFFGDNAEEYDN

[3] = target: intranuclear protein derived from type-A influenza virus H11N6 (A/duck/England/1/1956) (type-A influenza virus H11N6 …, UniProt P26062 1-498); assay: as above
intranuclear protein derived from type-A influenza virus H11N6 (A/duck/England/1/1956), sequence (P26062 whole entry): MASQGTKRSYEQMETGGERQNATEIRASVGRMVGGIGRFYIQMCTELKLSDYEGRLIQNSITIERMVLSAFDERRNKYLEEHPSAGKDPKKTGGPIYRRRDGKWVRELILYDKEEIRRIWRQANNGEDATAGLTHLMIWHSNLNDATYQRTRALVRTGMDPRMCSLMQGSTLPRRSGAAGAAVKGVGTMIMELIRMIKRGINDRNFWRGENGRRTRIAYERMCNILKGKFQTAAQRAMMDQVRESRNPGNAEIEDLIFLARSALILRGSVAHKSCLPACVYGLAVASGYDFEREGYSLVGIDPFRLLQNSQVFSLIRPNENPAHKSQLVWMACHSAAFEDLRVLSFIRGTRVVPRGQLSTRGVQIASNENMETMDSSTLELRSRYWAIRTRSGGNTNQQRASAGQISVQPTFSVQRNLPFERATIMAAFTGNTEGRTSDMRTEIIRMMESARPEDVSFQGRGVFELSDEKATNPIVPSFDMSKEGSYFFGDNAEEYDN

[4] = target: recombinant nucleoprotein (NP) protein derived from influenza virus H1N1 to which a Flag tag was fus (influenza virus H1N1)
recombinant nucleoprotein (NP) protein derived from influenza virus H1N1 to which a Flag tag was fus (influenza virus H1N1), sequence (P03466 whole entry): as the sequence (P03466 whole entry) above

[5] = target: recombinant intranuclear protein (SEQ ID NO: 24) derived from a type-A influenza virus H1N1 (A/Puert (type-A influenza virus H1N1 (A/Puerto …, UniProt P03466 1-498))); assay: phage ELISA on immobilized NP, anti-M13 detection, absorbance at 450 nm
recombinant intranuclear protein (SEQ ID NO: 24) derived from a type-A influenza virus H1N1 (A/Puert (type-A influenza virus H1N1, sequence (P03466 whole entry): as above

| Binder | binding result [1] | binding result [2] | binding result [3] | Kd [4] [nM] | binding result [5] |
| --- | --- | --- | --- | --- | --- |
| B1 | binds | binds | binds | 0.826 |  |
| B2 |  |  |  |  | binds |
